From US20120058906A1 (published 2012) come the findings set out here.

Where a chain is given by its changes, count along the chain named.

The target in assay [1] is T1, rHuman CD44/Fc Chimera, CF (R&D Systems Cat#3660-CD) (human, UniProt P16070 21-220).
T1 construct: Bought Fc chimera; Fc part of the bought chimera not given
Briefly: ECL (MSD Multi-Spot) binding, antigen spotted on plate; Fab 0.5 nM.

Assay [2] concerns the target T2, rHuman IGF-1 sR, CF (R&D Systems Cat#391-GR) (human, UniProt P08069 31-932).
T2 construct: Bought soluble receptor; also called insulin-like growth factor-1 soluble receptor; IGF-R1
The description is as above.

The target of assay [3] is T3, rHuman P-Cadherin/Fc Chimera, CF (R&D Systems Cat#861-PC) (human, UniProt P22223 108-654).
T3 construct: Bought Fc chimera; Fc part of the bought chimera not given
Described as above.

In assay [4] the target is T4, rHuman Erythropoietin R/Fc Chimera, CF (R&D Systems Cat#963-ER) (human, UniProt P19235 25-250).
T4 construct: Bought Fc chimera; also called EPO R/Fc; erythropoietin receptor; Fc part of the bought chimera not given
T4 sequence: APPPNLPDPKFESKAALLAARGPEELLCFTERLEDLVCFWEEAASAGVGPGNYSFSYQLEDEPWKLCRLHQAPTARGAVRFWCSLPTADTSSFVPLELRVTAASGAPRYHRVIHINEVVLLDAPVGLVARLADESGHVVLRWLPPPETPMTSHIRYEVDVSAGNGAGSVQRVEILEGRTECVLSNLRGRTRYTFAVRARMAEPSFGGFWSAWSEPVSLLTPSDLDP
The assay is described as above.

The target of assay [5] is T5, Recombinant Human DLL4 (R&D Systems Cat#1506-D4/CF) (human, UniProt Q9NR61 27-524).
T5 construct: Bought recombinant protein; also called delta-like protein 4
The description is as above.

Assay [6] addresses T6, rHuman EGF R/Fc Chimera, CF (R&D Systems Cat#344-ER) (human, UniProt P00533 25-645).
T6 construct: Bought Fc chimera; also called epidermal growth factor receptor; Fc part of the bought chimera not given
The description is as above.

For assay [7], the target named is T7, rHuman Notch-1/Fc Chimera, CF (R&D Systems Cat#3647-TK) (human, UniProt P46531 19-526).
T7 construct: Bought Fc chimera; Fc part of the bought chimera not given
The assay is described as above.

Assay [8] deals with T8, rHuman Erythropoietin R/Fc Chimera, CF (R&D Systems Cat#963-ER) (human, UniProt P19235 25-250).
T8 construct: Bought Fc chimera; also called EPO R/Fc; Epo R; not shown: Fc of the bought chimera
T8 sequence: T4 sequence
Briefly: ECL (MSD multi-spot), antigen on plate, Fab 2 nM.

In assay [9] the target is T9, rHuman HGF R/c-MET/Fc Chimera, CF (R&D Systems Cat#358-MT/CF) (human, UniProt P08581 25-932).
T9 construct: Bought Fc chimera; also called HGF R/Fc; not shown: Fc of the bought chimera
In words: ECL (MSD multi-spot), antigen on plate, Fab 2 nM.

Assay [10] deals with T10, rHuman Erythropoietin R/Fc Chimera, CF (R&D Systems Cat#963-ER) (human, UniProt P19235 25-250).
T10 construct: Bought reagent; also called EPO R/Fc; Epo R; Fc part of the bought chimera not given
T10 sequence: T4 sequence
In words: ECL (MSD multi-spot), antigen spotted on plate; Fab 11 nM; blank spot 212.

In assay [11] the target is T11, Recombinant Human DLL4 (R&D Systems Cat#1506-D4/CF) (human, UniProt Q9NR61 27-524).
T11 construct: Bought reagent; also called delta-like protein 4
Described as above.

Assay [12] concerns the target T12, rHuman ErbB2/Fc Chimera, CF (R&D Systems Cat#1129-ER) (human, UniProt P04626 23-652).
T12 construct: Bought reagent; also called HER2/neu; human epidermal growth factor 2 receptor; Fc part of the bought chimera not given
Described as above.

For assay [13], the target named is T13, rHuman EGF R/Fc Chimera, CF (R&D Systems Cat#344-ER) (human, UniProt P00533 25-645).
T13 construct: Bought reagent; also called epidermal growth factor receptor; Fc part of the bought chimera not given
The description is as above.

In assay [14] the target is T14, rHuman HGF R/c-MET/Fc Chimera, CF (R&D Systems Cat#358-MT/CF) (human, UniProt P08581 25-932).
T14 construct: Bought reagent; also called HGF R/Fc; hepatocyte growth factor receptor; Fc part of the bought chimera not given
Described as above.

Assay [15] concerns the target T15, rHuman Notch-1/Fc Chimera, CF (R&D Systems Cat#3647-TK) (human, UniProt P46531 19-526).
T15 construct: Bought reagent; Fc part of the bought chimera not given
The description is as above.

The target of assay [16] is T16, rHuman CD44/Fc Chimera, CF (R&D Systems Cat#3660-CD) (human, UniProt P16070 21-220).
T16 construct: Bought reagent; Fc part of the bought chimera not given
The description is as above.

For assay [17], the target named is T17, rHuman IGF-1 sR (IGF-1 sR), CF (R&D Systems Cat#391-GR) (human, UniProt P08069 31-932).
T17 construct: Bought soluble receptor; also called insulin-like growth factor-1 soluble receptor; IGF-R1
Described as above.

Assay [18] has as its target T18, rHuman P-Cadherin/Fc Chimera, CF (R&D Systems Cat#861-PC) (human, UniProt P22223 108-654).
T18 construct: Bought reagent; also called CDH3; Fc part of the bought chimera not given
The assay is described as above.
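Also: blank spot per well as comparator with Hit at signal to blank ratio of 4 or more.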

B1: Fab VH1-46_IGHD6-6*01_IGHJ1*01_S102A_S103P_S104F_H111Y & L6_IGKJ1*01 (Fab, V domains shown)
VH: QVQLVQSGAEVKKPGASVKVSCKASGYTFTSYYMHWVRQAPGQGLEWMGIINPSGGSTSYAQKFQGRVTMTRDTSTSTVYMELSSLRSEDTAVYYCAREEYAPFSAEYFQYWGQGTLVTVSS
VL: not shown
notes: Fab made in E. coli; The heavy chain also carries the CH1 with Flag and His tags of Plasmid A, and the light chain the kappa constant region of Plasmid C
With B1, the ECL signal in [1] was found to be 279; in assay [2], 164; in assay [3], 215; in assay [4], 359; in assay [5], 2970; in [6], 273. This molecule came in with an ECL signal in assay [7] of 263.

B2: Fab VH1-46_IGHD6-6*01_IGHJ1*01_S102A_S103P_S104F & L6_IGKJ1*01_S28P (Fab, V domains shown)
VH: B1 VH with Y111H
VL: EIVLTQSPATLSLSPGERATLSCRASQPVSSYLAWYQQKPGQAPRLLIYDASNRATGIPARFSGSGSGTDFTLTISSLEPEDFAVYYCQQRSNWPPWTFGQGTKVEIKR
notes: Fab
Consider B2, for which the ECL signal in assay [8] is 251 ECL signal; in [9] it was 255 ECL signal.

B3: Fab VH1-46_IGHD3-10*01_IGHJ4*01 & B3_IGKJ1*01 (Fab, V domains shown)
VH: QVQLVQSGAEVKKPGASVKVSCKASGYTFTSYYMHWVRQAPGQGLEWMGIINPSGGSTSYAQKFQGRVTMTRDTSTSTVYMELSSLRSEDTAVYYCAREYYYGSGSYYNDYFDYWGQGTLVTVSS
VL: not shown
notes: also called IGHV1-46*01
In the case of B3, the ECL signal in assay [10] is 1820; in [11] it was 254; in assay [12] it was 216; in assay [13], 201; in [14] it was 268; in [15], 404. Further, the values for the ECL signal in assay [16], in [17] and in assay [18] were 296, 289 and 270, respectively.
